From US20220088193A1 (AGONOX, published 2022)
Where a chain is given by its changes, count along the chain named. Blank lines part the entries; values can stand above or below the binder they belong to.

How the values were obtained:
human CD55 [1] = biological target: T1, human CD55 (human, UniProt P08174 35-353, limits assumed); experiment: ELISA on human CD55, HRP-anti-mouse secondary, A450; left panel 'Binding to human CD55 by ELISA', EC50 table below the graph
T1 construct: also called Decay-Accelerating Factor; DAF
T1 sequence (looked up): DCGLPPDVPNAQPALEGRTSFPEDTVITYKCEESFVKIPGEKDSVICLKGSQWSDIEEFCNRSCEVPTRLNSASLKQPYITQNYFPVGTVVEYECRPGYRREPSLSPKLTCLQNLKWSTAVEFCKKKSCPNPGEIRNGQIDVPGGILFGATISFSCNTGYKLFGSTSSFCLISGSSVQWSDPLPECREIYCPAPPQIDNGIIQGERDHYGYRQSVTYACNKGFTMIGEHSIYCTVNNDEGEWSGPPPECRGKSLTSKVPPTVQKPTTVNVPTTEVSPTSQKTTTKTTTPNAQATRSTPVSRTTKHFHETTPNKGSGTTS
Excerpt: (§1) EC₅₀ values were obtained by fitting to a sigmoid non-linear equation, using PRISM. These human antibodies contained mouse IgG2A Fc domains for use in in vivo mouse tumor models and were detected by HRP-anti-mouse secondary antibodies.
as §1

mouse CD55 [2] = biological target: T2, mouse CD55 (mouse, UniProt Q61475 35-362, limits assumed); experiment: ELISA on mouse CD55, HRP-anti-mouse secondary, A450; right panel 'Binding to mouse CD55 by ELISA', EC50 table below the graph
T2 sequence (looked up): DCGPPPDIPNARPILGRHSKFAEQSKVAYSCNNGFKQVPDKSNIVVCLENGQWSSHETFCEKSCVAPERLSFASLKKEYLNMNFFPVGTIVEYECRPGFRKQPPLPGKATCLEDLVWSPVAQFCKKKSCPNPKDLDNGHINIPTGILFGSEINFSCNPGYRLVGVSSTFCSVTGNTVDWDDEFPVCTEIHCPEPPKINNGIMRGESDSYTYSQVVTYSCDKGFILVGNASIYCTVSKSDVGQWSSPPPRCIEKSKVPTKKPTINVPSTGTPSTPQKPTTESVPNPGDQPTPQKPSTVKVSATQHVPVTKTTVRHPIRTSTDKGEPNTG
Excerpt: as §1, §1

human CD55 [3] = biological target: T1, human CD55; experiment: library screen, species specificity summary
mouse CD55 [4] = biological target: T2, mouse CD55; experiment: ELISA on mouse CD55, HRP-anti-mouse secondary, A450; right panel 'Binding to mouse CD55 by ELISA'
Excerpt: as §1, §1

Plate-bound CD55 [5] = biological target: T3, Plate-bound CD55 (Homo sapiens (Human), UniProt P08174 35-353); experiment: competition ELISA on plate-bound CD55, streptavidin-HRP, A450; competitor antibody: None
T3 sequence: T1 sequence (looked up)
Method: (§2) FIG. 3: Competition ELISA data for comparing the epitopes of the mouse+human CD55 binding antibodies.
(§3) Comparison of the epitopes of the mouse+human CD55-binding antibodies was performed by competition ELISA.

Plate-bound CD55 [6] = biological target: T3, Plate-bound CD55; experiment: competition ELISA on plate-bound CD55, streptavidin-HRP, A450; plate pre-incubated with unlabeled competitor P5-4 at 1.0 ug/ml
Method: as §2, §3

Plate-bound CD55 [7] = biological target: T3, Plate-bound CD55; experiment: competition ELISA on plate-bound CD55, streptavidin-HRP, A450; plate pre-incubated with unlabeled competitor P5-1J at 1.0 ug/ml
Method: as §2, §3

Plate-bound CD55 [8] = biological target: T3, Plate-bound CD55; experiment: competition ELISA; plate-bound CD55 pre-incubated with the unlabeled competitor P5-1J, washed, biotinylated P5-1J titrated, Streptavidin-HRP
Method: as §2, §3

Plate-bound CD55 [9] = biological target: T3, Plate-bound CD55; experiment: competition ELISA on plate-bound CD55, streptavidin-HRP, A450; plate pre-incubated with unlabeled competitor P5-2-2A at 1.0 ug/ml
Method: as §2, §3

Plate-bound CD55 [10] = biological target: T3, Plate-bound CD55; experiment: competition ELISA; plate-bound CD55 pre-incubated with the unlabeled competitor P5-2-2A, washed, biotinylated P5-1J titrated, Streptavidin-HRP
Method: as §2, §3

Plate-bound CD55 [11] = biological target: T3, Plate-bound CD55; experiment: competition ELISA on plate-bound CD55, streptavidin-HRP, A450; plate pre-incubated with control competitor mIgG2A at 1.0 ug/ml (curve lies on that of None)
Method: as §2, §3

binding result (human CD55 [3]): binds
B2: P5-3 (antibody, V domains shown)
VH: EVQLVESGGGLVQPGGSLRLSCAASGFTFSSYYIHWVRQAPGKGLEWVAAISSSSGSTYYADSVKGRFTISADTSKNTAYLQMNSLRAEDTAVYYCAREDWHRYERRFYEGFDYWGQGTLVTVSS
VL: DIQMTQSPSSLSASVGDRVTITCRASQSVSSAVAWYQQKPGKAPKLLIYSASSLYSGVPSRFSGSRSGTDFTLTISSLQPEDFATYYCQQYYSSPLTFGQGTKVEIKR

EC50 (read off the curve) (mouse CD55 [4]): ~6 ng/mL
EC50 (human CD55 [1]): 4.72 ng/mL
B3: P5-2-2A with mouse IgG2A Fc domains (antibody, V domains shown)
VH: EVQLVESGGGLVQPGGSLRLSCAASGFTFSSYYIHWVRQAPGKGLEWVAAISSSSGSTYYADSVKGRFTISADTSKNTAYLQMNSLRAEDTAVYYCAREARFHGDFILDYWGQGTLVTVSS
VL: B2 VL with S93I, S94T
notes: not shown: mouse IgG2A Fc domain

EC50 (human CD55 [1]): 3.68 ng/mL
EC50 (mouse CD55 [2]): 22.7 ng/mL
B6: P5-4 with mouse IgG2A Fc domains (antibody, V domains shown)
VH: B3 VH with A100D, R101Y, F102Y, H103W, I107V, L108F
VL: B2 VL
notes: as for B3

binding result (human CD55 [3]): binds
B7: P5-2 (antibody, V domains shown)
VH: B3 VH with A100V, F102I, I107V
VL: B2 VL
notes: also called parent Ab P5-2

Continued, binder first:

B1: P5-1 with mouse IgG2A Fc domains (antibody, V domains shown)
VH: B3 VH with A100R, R101Y, H103Y, I107V, L108F
VL: B2 VL
notes: as for B3
EC50 (human CD55 [1]): 4.27 ng/mL
EC50 (mouse CD55 [2]): 3.46 ng/mL

B4: P5-1J with mouse IgG2A Fc domains (antibody, V domains shown)
VH: B3 VH with S31H, Y32H, S53T, S54G, S55G, S57T, A100R, R101Y, H103N, L108Y
VL: B2 VL with S94T
notes: as for B3
EC50 (human CD55 [1]): 4.07 ng/mL
EC50 (mouse CD55 [2]): 3.21 ng/mL

B5: P5-1J (antibody, V domains shown)
VH: B3 VH with S31H, Y32H, S53T, S54G, S55G, S57T, A100R, R101Y, H103N, L108Y
VL: B2 VL with S94T
notes: also called biotinylated P5-1J; unlabeled P5-1J
EC50 (Plate-bound CD55 [5]): 2.13 ng/mL
EC50 (Plate-bound CD55 [6]): 24.1 ng/mL
EC50 (Plate-bound CD55 [7]): 108 ng/mL
fold shift in EC50 (Plate-bound CD55 [8]): 100 fold
EC50 (Plate-bound CD55 [9]): 21.4 ng/mL
fold shift in EC50 (Plate-bound CD55 [10]): 20 fold
EC50 (Plate-bound CD55 [11]): 1.96 ng/mL
